In article PMC5404276 (ACS Chemical Biology, 2017):
Values belong to the molecule of their own block, whether it stands above or below them.

Experiments:
[1] = target: [Acp]2:[ISD11]2:[NFS1]2 cysteine desulfurase complex (human | E. coli) (UniProt Q9HD34); assay: SEC + other: amino acid analysis + other: SAXS
human ISD11-His6 (human) = human ISD11-His6 (human) (UniProt Q9HD34); assay: amino acid analysis + other: SAXS
[2] = target: human mitochondrial cysteine desulfurase NFS1 (human); assay: amino acid analysis + other: SAXS
human ISD11-His6 = human ISD11-His6 (human, UniProt Q9HD34 1-91); assay: amino acid analysis + other: SAXS
Sequence of human ISD11-His6 (Q9HD34 whole entry): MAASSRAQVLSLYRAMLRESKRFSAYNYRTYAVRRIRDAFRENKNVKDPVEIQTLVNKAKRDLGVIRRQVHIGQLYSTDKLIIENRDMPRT

Sequence of human ISD11-His6 (human) (Q9HD34 whole entry): as above
Sequence of [Acp]2:[ISD11]2:[NFS1]2 cysteine desulfurase complex (human | E. coli) (Q9HD34 whole entry, looked up, one chain of several): as the sequence (Q9HD34 whole entry) above
Sequence of human mitochondrial cysteine desulfurase NFS1 (human) (Q9Y697 whole entry): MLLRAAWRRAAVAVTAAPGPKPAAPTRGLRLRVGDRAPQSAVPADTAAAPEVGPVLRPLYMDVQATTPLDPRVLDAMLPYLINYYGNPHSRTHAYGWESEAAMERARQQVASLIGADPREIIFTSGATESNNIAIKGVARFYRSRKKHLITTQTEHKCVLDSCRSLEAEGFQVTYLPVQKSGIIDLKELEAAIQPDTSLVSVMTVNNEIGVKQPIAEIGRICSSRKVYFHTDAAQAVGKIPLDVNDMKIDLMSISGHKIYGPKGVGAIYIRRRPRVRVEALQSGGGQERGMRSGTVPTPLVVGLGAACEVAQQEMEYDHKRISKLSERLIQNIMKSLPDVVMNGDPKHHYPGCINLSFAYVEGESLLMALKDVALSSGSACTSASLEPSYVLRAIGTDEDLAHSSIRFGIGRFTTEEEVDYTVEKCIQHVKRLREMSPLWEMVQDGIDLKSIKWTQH

- stoichiometry N [1]: 2
Molecule: human frataxin FXN81-210 (mature form of frataxin) (from UniProt Q16595 81-210) (natural protein)

- stoichiometry N [2]: 1
Molecule: holo-form of E. coli acyl carrier protein (Acp) (from UniProt P0A6A8 1-78) (natural protein)

Second part, the molecule before the results:

Molecule: human mitochondrial cysteine desulfurase NFS1 (enzyme)
- stoichiometry N (human ISD11-His6 (human)): 1

B1: holo-form of E. coli acyl carrier protein (Acp) (natural protein, UniProt P0A6A8 1-78, looked up)
chain: MSTIEERVKKIIGEQLGVKQEEVTNNASFVEDLGADSLDTVELVMALEEEFDTEIPDEEAEKITTVQAAIDYINGHQA
modifications: 4'-phosphopantetheine conjugated to S37
- stoichiometry N (human ISD11-His6): 1
